# Test results published in paper PMC12000561.
# Tests used:
# Assay in all cases: EMSA
# Settings in all cases: EMSA: DNA mix 40 mM Tris pH 7.6, 2 mM EDTA, 200 mM NaCl (printed '200 M'), 20% glycerol, 0.2 mg/ml BSA, 2 mM DTT, 20 pM duplex, mixed 1:1 with enzyme in 20 mM …
# [1] = tested on: MUTYH R241Q (MBP fusion) (Homo sapiens)
# [2] = tested on: MUTYH N238S (MBP fusion) (Homo sapiens)
# [3] = tested on: MUTYH V246F (MBP fusion) (Homo sapiens)
# [4] = tested on: MUTYH R309C (MBP fusion) (Homo sapiens)
# [5] = THF (abasic analog) opposite 8-oxoguanine
# [6] = upper limit estimate, THF (abasic analog) opposite 8-oxoguanine
# [7] = table unit header missing, 2'-fluoro-2'-deoxyadenosine opposite 8-oxoguanine
Substance,"Kd [1, 5]","Kd [2, 5]","Kd [3, 6]","Kd [4, 6]","Kd [1, 7]","Kd [2, 7]","Kd [3, 7]","Kd [4, 7]"
"Duplex 2 THF:OG (product analog), 30 bp",467 pM,46 pM,< 10 pM,< 10 pM,–,–,–,–
"Duplex 2 fA:OG (substrate analog), 30 bp",–,–,–,–,629 pM,124 pM,50 pM,246 pM
